molecular target: T1, purified recombinant human CD40 protein (human, UniProt P25942 21-193); assay: ELISA on coated recombinant human CD40; chimeric antibody supernatant
T1 construct: also called recombinant CD40
Experimental: ELISA plate was coated with purified recombinant CD40 protein in coating buffer at lug/ml overnight. After washed for 3 times, the plate was blocked with 1% BSA, and then cell culture supernatants containing rabbit-human chimeric CD40 antibodies were added to the plate. For detection of the antibody binding to CD40 protein, goat anti-human Fc polyclonal antibody conjugated to alkaline phosphatase was used.

T1 sequence (P25942 21-193 limits assumed): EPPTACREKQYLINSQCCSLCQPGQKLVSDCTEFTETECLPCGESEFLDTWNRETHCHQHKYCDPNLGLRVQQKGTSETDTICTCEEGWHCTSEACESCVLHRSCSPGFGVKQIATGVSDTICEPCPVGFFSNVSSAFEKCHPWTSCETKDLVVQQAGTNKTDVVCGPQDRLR

| Binder | OD405 |
| --- | --- |
| 1D3 rabbit-human chimeric anti-CD40 antibody (antibody, V domains shown, tested as cell culture supernatant) VH: QSLEESGGRLVTPGTPLTLTCTASGFSLSNYHMCWVRQAPGKGLEWIGYNSYGGSAYYASWAKGRFTISKTSTTVDLKITRPTTEDTATYFCARAYLDYNGDMGFALWGPGTLVTVSS VL: EVVMTQTPSSVSAAVGGTVTFKCQASQSISSYLSWYQQKPGQPPKLLIYRASTLESGVPSRFKGSGSGTQFTLTISDLECADAATYYCQTNYYDSGNTYGTFGGGTEVVVK | 1.51 OD405 |
| 6C2 rabbit-human chimeric anti-CD40 antibody (antibody, V domains shown, tested as cell culture supernatant) VH: QSVEESGGRLVTPGTPLTLTCTASGFSLSTYYMIWVRQAPGKGLDYIGIISSNGNAYYATWAKGRFTISKTSTTVDLKMTSPTTEDTATYFCARAASIANSYYFNVWGPGTLVTVSS VL: AVLTQTPSPVSAAVGGTVSISCQSSQSVRDNNWLSWFQQKPGHPPKLLIYGASNLESGVPSRFSGSGSGTEFTLTISDVQCDDAATYYCQGGFSTYSDNSFGGGTEVVVK | 1.96 OD405 |
| 6E1 rabbit-human chimeric anti-CD40 antibody (antibody, V domains shown, tested as cell culture supernatant) VH: QSVEESGGRLVTPGTPLTLTCTVSGFSLSSYAMTWVRQAPGKGLEWLGIIDTIGSTYYASWAKGRFTISKTSTTVDLKITSPTTEDTATYFCVRDYIGSTSGKKLWGRGTLVTVSS VL: AVLTQTPSSVEAAVGGTVSISCQSSKSVYYKNWLAWYQQKPGQPPKLLIYGASTLASGVPSRFKGSGSGAQFTLTISDVQCDDAATYYCAGGYSSDSDTGFGGGTEVVVK | 1.82 OD405 |
| 6G8 rabbit-human chimeric anti-CD40 antibody (antibody, V domains shown, tested as cell culture supernatant) VH: QSVEESGGRLVTPGTPLTLTCTASGFSLSTYYMTWVRQAPGKGLEAIGYINTGGSTYYASRAKGRFTISKTSTTVDLKMTSPTTEDTATYFCARADASEHNYNGLNIWGPGTLVTVSS VL: DIVMTQTPASVSEPVGGTVTIKCQASESISSNLAWYQQKPGQPPKFLIYRASTLASGVPSRFKGSGFGTQFTLTISDLECADAATYYCQSNYGSISSSYGNAFGGGTEVVVK | 1.77 OD405 |
| 6H9 rabbit-human chimeric anti-CD40 antibody (antibody, V domains shown, tested as cell culture supernatant) VH: QSLEESGGRLVTPGTPLTLTCTVSGIDLSSYAMGWVRQAPGKGLEYIGVIASNSGISYYATWAEGRFTISKASTTVDLKITSPTTEDTATYFCVRGYIGDGALWGPGTLVTVSS VL: AVLTQTPSSVSAAVGGTVTINCQSSKTVYYNNWLAWYQQKPGQPPKLLIYRASTLASGVPSRFKGSGSGTQFTLTISDVQCDDATTYYCAGGFSSDSDTTFGGGTEVVVK | 1.97 OD405 |
| 7A6 rabbit-human chimeric anti-CD40 antibody (antibody, V domains shown, tested as cell culture supernatant) VH: QSVEESGGRLVTPGTPLTLACTVSGIDLSTWTMSWVRQAPGKGLEWIGIINSDSNTYYASWAKGRFTISKASTTVDLKMTSLTTEDTATYFCARGVGGYSSGPDYLDIWGPGTLVTVSS VL: DIVMTQTPASVEAAVGGTVTIKCQASQSIYRSLAWYQQKPGQPPKLLMYHASDLASGVPSRFKGSGSGTEYTLTISDLECADAATYYCQSYYYSGINTYGNAFGGGTEVVVK | 1.99 OD405 |
| 7C11 rabbit-human chimeric anti-CD40 antibody (antibody, V domains shown, tested as cell culture supernatant) VH: QSLEESGGRLVTPGGSLTLTCTVSGIDLSTNGMGWVRQGPGKGLEWIGTIRVTAGTDYANWAKGRFTISKTSSTTVDLKMTSLTTEDTATYFCARGHANNDAYVYFNLWGQGTLVTVSS VL: AFELTQTPASVEAGVGGTVTIKCQASQSIDRYLAWYQQKSGQPPKLLISYTSKLASGVPSRFKGSGSGTEFTLTISDLECADAATYYCQSYFTSDDANSFGGGTEVVVK | 1.8 OD405 |
| 7G6 rabbit-human chimeric anti-CD40 antibody (antibody, V domains shown, tested as cell culture supernatant) VH: QSLEESGGRLVTPGGSLTLTCTVSGIDLSTNGMGWVRQGPGKGLEWIGTIRVTGGTDYATWAKGRFTISKTSSTTVDLKMTSPTTEDTATYFCARGHANNDAYVYFNLWGQGTLVTVSS VL: AFELTQTPASVEAGVGGTVTIKCQASQSIDRYLAWYQQKPGQPPKLLISYTSTLTSGVPSRFKGSGSGTEFTLTISDLECADAATYYCQSYFTSDDANTFGGGTEVVVK | 1.82 OD405 |
| 8C10 rabbit-human chimeric anti-CD40 antibody (antibody, V domains shown, tested as cell culture supernatant) VH: QSLAESGGRLVTPGGSLTLTCTVSGIDLSTDGMGWVRQGPGKGLEWIGTIRVTGGTDFATWAKGRFTIAKTSSTTVDLKMTSLTTEDTATYFCARGHANNDAYVYFNLWGQGTLVTVSS VL: AFELTQTPASVEAGVGGTVTIKCQASQSIDRYLAWYQQKPGQPPKLLMAAAANLASGVPSRFKGSRSGTEFTLTISDLECADGATYYCQSYFTSDDGNTFGGGTEVVVK | 2.09 OD405 |
| 2C10 rabbit-human chimeric anti-CD40 antibody (antibody, V domains shown, tested as cell culture supernatant) VH: QSLEESGGRLVTPGTPLTLTCTASGFTMNRYRMSWVRQAPGKGLEWIGTINNDAGASYASWVNGRFTISKTSSTTVDLKITGPTTEDTATYFCARAGDNIYVDLYNLWGPGTLVTVSS VL: DVVMTQTPASVSGAVGGTVTIKCQASENIFSYLAWYQQKPGQPPKLLFYGASNLASGVPSRFSGSRSGTEFTLTISDLECADAATYYCQFTNYGSSDIRSPFGGGTEVVVK | 2.14 OD405 |
| 7H11 rabbit-human chimeric anti-CD40 antibody (antibody, V domains shown, tested as cell culture supernatant) VH: QSVEESGGRLVTPGTPLTLTCTVSGIDFSKYWMAWVRQAPGEGLEYIGILSTTGSTYYASWAKGRFTISKTSTTVDLKITSLTTEDTATYFCARGNYIGNGYTWDIWGPGTLVTVSS VL: DPVLTQTPSSASEPVGGTVTIKCQASQSIGSYLAWYQQKPGQPPKLLIYSPSTLASGVSSRFKGSRSGTEFTLTISDLECADAATYYCQSTAVGITFGGGTEVVVK | 1.46 OD405 |
| 3B12 rabbit-human chimeric anti-CD40 antibody (antibody, V domains shown, tested as cell culture supernatant) VH: QSLEESGGRLVTPGTPLTLTCTVSGIDLSSYAMGWVRQAPGKGLEYIGVIASNSGISYYATWAEGRFTISKASTTVDLKITSPTTEDTATYFCVRGYIGDGALWGPGTLVTVSS VL: AVLTQTPSSVSAAVGGTVTINCQSSKTVYYNNWLAWYQQKPGQPPKLLIYRASTLASGVPSRFKGSGSGTQFTLTISDVQCDDATTYYCAGGFSSDSDTTFGGGTEVVVK | 1.57 OD405 |
| 2B8 rabbit-human chimeric anti-CD40 antibody (antibody, V domains shown, tested as cell culture supernatant) VH: QSLEESGGRLVTPGTPLTLTCTVSGIDLSSYAMGWVRQAPGKGLEYIGVIASNSGISYYATWAEGRFTISKASTTVDLKITSPTTEDTATYFCVRGYIGDGALWGPGTLVTVSS VL: AVLTQTPSSVSAAVGGTVNIGCQSSKSVYYNNWLAWYQQKPGQPPKLLIYRASTLASGVPSRFKGSGSGTQFTLTISDVQCADATTYYCAGGYSSDSDTTFGGGTEVVVK | 1.64 OD405 |
| 8C6 rabbit-human chimeric anti-CD40 antibody (antibody, V domains shown, tested as cell culture supernatant) VH: QSVEESGGRLVTPGTPLTLTCTASGFTITSYYIIWVRQAPGEGLEYIGIIDTGGSADYASWAKGRFTISRTSTTVDLKMTSLTTEDTATYFCARADVGSVGSIWGPGTLVTVSS VL: DVAMTQTPSSVSAAVGGTVTIECQASQNIYTNLAWYQQKPGQRPKLLIYYASTLASGVPSRFSGSGSGTEFSLTISDLECADAATYYCQCTYIKWRHVCGFGGGTEVVVK | 1.97 OD405 |
| 7D2 rabbit-human chimeric anti-CD40 antibody (antibody, V domains shown, tested as cell culture supernatant) VH: QSVEESGGRLVTPGTPLTLTCTVSGFSLNNYYMGWVRQAPGKGLEYIGWITSGRIAAYANWAKGRFTISKTSTTVDLKITSPTIGDTATHFCATTTTSDAYFFPRLGLWGQGTLVTVSS VL: AVLTQTPSPVSAAVEGTVTINCQSSQSVDNNRLSWFQQKPGQPPKLLIYDASTLASGVPPRFKGSGSGTQFTLTISDVQCDDAATYYCAGGYSFPSENAFGGGTEVVVK | 1.82 OD405 |
| 2E11 rabbit-human chimeric anti-CD40 antibody (antibody, V domains shown, tested as cell culture supernatant in the ELISA) VH: QSLEESGGRLVTPGTPLTLTCTVSGIDLSRYAMGWVRQAPGKGLEFIGIITSNSGDTYYATWAKGRFTISKTSTTVDLKITSPTTEDTATYFCVRGYIGAPNLWGPGTLVTVSS VL: AVLTQTPSPVSAAVGGTVSISCQSSKTVYYNNYLSWFQQKPGQPPKELIYYASTLSSGVPSRFKGSGSGTQFTLTISDVQCDDAATYYCAGGYNSDSDNTFGGGTEVVVK | 1.79 OD405 |
| 5F9 rabbit-human chimeric anti-CD40 antibody (antibody, V domains shown, tested as cell culture supernatant in the ELISA) VH: QSVEESGGRLVTPGTPLTLTCTASGFSLIGYVMGWFRQAPGKGLEYIGWISFGGDPYYASWVKGRFTISKTSTTVDLKMTSLTTEDTATYFCARSTYGDIWGPGTLVTVSS VL: DIVMTQTPASVEAAVGGTVTIKCQASQSISSRLAWYQLKPGQPPKLLIYSASTLASGVPSRFKGSGSGTEFTLTISDLECADAATYYCQNHGYATSESYTNTFGGGTEVVVK | 1.83 OD405 |
| 5D10 rabbit-human chimeric anti-CD40 antibody (antibody, V domains shown, tested as cell culture supernatant) VH: QSVEESGGRLVTPGTPLTLTCTVSGFSFYDHTMIWVRQAPGKGLEYIGFINIGGRAYYASWAKGRFTISRTSTTVDLEMTSLTTEDTATYFCARGDTHGYSYPEIWGPGTLVTVSS VL: DIVMTQTPASVEAGVGGTVTIKCQASQTIYSYLSWYQQKPGQPPKLLIYRASTLASGVPSRFRGSGSGTEFTLTISDLECADAAAYYCQNYYDSTSSNAFGKGTEVVVK | 0.98 OD405 |
| 192 rabbit-human chimeric anti-CD40 antibody (antibody, V domains shown, tested as cell culture supernatant) VH: QSVEESGGRLVTPGTPLTLTCTVSGFSLSSYAMNWVRQAPGKGLEYTGMIATGGKTFYAGWAEGRFTISKTSTTVDLHIASLTTEDTATYYCARGYVGDIYFGFWGPGTLVTVSS VL: AVLTQTPSPVSAGVGGTVTISCQSSKSVYYNTHLSWFQQKPGQPPKLLIYRASTLASGVPSRFKGSGSGTQFTLTISDVQCDDAATYYCAGGYANDVDNGFGGGTEVVVK | 2 OD405 |
| 195 rabbit-human chimeric anti-CD40 antibody (antibody, V domains shown, tested as cell culture supernatant) VH: QSVEESGGRLVTPGTPLTLTCTVSGFSLSSYAMNWVRQAPGKGLEYIGMIATGGKTFYAGWAEGRFTISKTSTTVDLHIASLTTEDTATYYCARGYVGDIYFGFWGPGTLVTVSS VL: AVLTQTPSPVSAGVGGTVTISCQSSKSVYYNTHLPWFQQKPGQPPKLLIYRASTLASGVPSRFKGSGSGTQFTLTISDVQCDDAATYYCAGGYANDVDNGFGGGTEVVVK | 1.84 OD405 |
| 194 rabbit-human chimeric anti-CD40 antibody (antibody, V domains shown, tested as cell culture supernatant) VH: QSVEESGGRLVTPGTPLTLTCTVSGFSLSSYAMSWVRQAPGKGLEYIGVMNTGGSAHYATWAKGRFTISKTSTTVDLKITSPTTADTATYFCARGYIGSPNLWGPGTLVTVSS VL: AVLTQTPSPVSAAVGGTVSISCQSSKSVYYNNYLSWFQQKPGQPPKQLIYLASTLASGVPSRFKGSGSGTEFTLTISDVQCADAATYYCAGGYTDSDDAFGGGTEVVVK | 1.69 OD405 |
| 196 rabbit-human chimeric anti-CD40 antibody (antibody, V domains shown, tested as cell culture supernatant) VH: QSVEESGGRLVTPGTPLTLTCTVSGFSLSAYAIHWVRQAPGKGLEYIGIIDAGGNIVYATWALGRFTISKTSTTVDLKITSPTTEDTATYFCGRGLSSYSNSAMDLWGPGTLVTVSS VL: DVVMTQTPASVSEPVGGTVTMKCQASQNIYTYLAWYQQKPGRPPKLLIYQASTLASGVSSRFSGSGSGTEFTLTISDLECADAATYYCQSTAGNAYNAFGGGTEVVVK | 1.92 OD405 |
